In publication PMC9080631:

B1: DC14 (dimeric truncated C14) (ssDNA)
DNA: AACCAAATATCTACGCATCATTTTTCCTTTAACCAAATATCTACGCATCATTTTTCCTTT

Each binder was assayed against T1, alpha-methylacyl-CoA racemase (AMACR) (UniProt Q9UHK6 1-382) (assay: ELAA).
T1 sequence: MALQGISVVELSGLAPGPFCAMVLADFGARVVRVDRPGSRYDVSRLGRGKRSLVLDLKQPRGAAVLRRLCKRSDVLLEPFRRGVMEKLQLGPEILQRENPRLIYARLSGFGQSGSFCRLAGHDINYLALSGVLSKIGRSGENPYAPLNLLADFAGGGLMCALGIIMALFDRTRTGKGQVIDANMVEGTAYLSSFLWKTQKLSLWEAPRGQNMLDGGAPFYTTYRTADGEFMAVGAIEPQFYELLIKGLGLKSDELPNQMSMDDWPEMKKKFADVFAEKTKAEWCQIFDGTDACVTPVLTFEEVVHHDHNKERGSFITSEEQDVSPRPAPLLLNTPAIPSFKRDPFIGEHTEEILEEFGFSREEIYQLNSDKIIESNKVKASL
Work on ACTTTTATCTCTCCTAACCTGTCCTGGGGT (ssDNA) [truncated C20 (N30)] yielded a Kd of 206 ± 36.4 nM. Work on AAAAATTTTTCCTTGTATGTCATTCTCTCA (ssDNA) [truncated B38 (N30)] yielded a Kd of 173 ± 91.8 nM. CTTTATGTGTCGGGATCAGATACACATCCG (ssDNA) [truncated A38 (N30)] gave a Kd of 813 ± 405 nM. Binder B1 has a Kd of 66.6 ± 17 nM. Work on TGAACTACTTAGTTTTATCCACTTATCCTG (ssDNA) [truncated A24 (N30)] yielded a Kd of 477 ± 170 nM. For GTCGAACCGTAGGGGCTATCTGTTGTGGGC (ssDNA) [truncated B4 (N30)], the Kd was 869 ± 215 nM. In the case of AACCAAATATCTACGCATCATTTTTCCTTT (ssDNA) [truncated C14 (N30)], the Kd is reported as 150 ± 55.8 nM.
